The values that follow come from publication PMC4577212, “X-Ray Structure and Mutagenesis Studies of the N-Isopropylammelide Isopropylaminohydrolase, AtzC” (PLoS ONE, 2015).

The subject of one data set is T1, Nc1nc(O)nc(O)n1.
T1 construct: full length, N-terminal His-tag (pETCC2, from pET14b), expressed in E. coli BL21(DE3); tag cut with thrombin for crystals; homotetramer ~210 kDa; Zn enzyme
Kind of data set: purified protein. The class given is biochemical, Pseudomonas sp. ADP. The note with it: 200 mM sodium phosphate pH 7.5, glycerol, 301 K, 28.0 °C.
For “AtzC (N-isopropylammelide isopropylaminohydrolase) (Pseudomonas sp. ADP; D188A)”, the Michaelis constant (Km) – broadly, the substrate concentration at which the rate is half of its maximum – was found to be 2200 ± 200 µM; the kcat (in general, the number of substrate molecules converted per active site and unit of time at saturation) stood at 106 ± 11.4 s⁻¹; the catalytic efficiency (kcat/Km) (commonly the second-order rate constant that governs catalysis at low substrate concentration) turned out to be 49000 M⁻¹ s⁻¹.

On to “AtzC (N-isopropylammelide isopropylaminohydrolase) (Pseudomonas sp. ADP; D303N)”, for which the Michaelis-Menten constant (Km) is 6100 ± 600 µM, the kcat is 90.4 ± 8.9 s⁻¹ and the kcat/Km was 15000 M⁻¹ s⁻¹.

For “AtzC (N-isopropylammelide isopropylaminohydrolase) (Pseudomonas sp. ADP; H219A)”, the Km turned out to be 1600 ± 400 µM, the kcat was found to be 16.8 ± 4 s⁻¹ and the catalytic efficiency (kcat/Km) came to 11000 M⁻¹ s⁻¹.

Consider “AtzC (N-isopropylammelide isopropylaminohydrolase) (Pseudomonas sp. ADP; K65A)”, for which the Michaelis constant (Km) came to 6100 ± 600 µM, the catalytic constant (kcat) amounted to 778 ± 79.7 s⁻¹ and the specificity constant (kcat/Km) was determined as 130000 M⁻¹ s⁻¹.

With “AtzC (N-isopropylammelide isopropylaminohydrolase) (Pseudomonas sp. ADP; K65R)”, the Michaelis constant (Km) amounted to 2400 ± 300 µM, the catalytic constant (kcat) amounted to 332 ± 34.3 s⁻¹ and the kcat/Km is 140000 M⁻¹ s⁻¹.

Regarding “AtzC (N-isopropylammelide isopropylaminohydrolase) (Pseudomonas sp. ADP; N304A)”, the Km was found to be 4200 ± 200 µM, the kcat was 29.3 ± 1.7 s⁻¹ and the specificity constant (kcat/Km) turned out to be 7000 M⁻¹ s⁻¹.

On to “AtzC (N-isopropylammelide isopropylaminohydrolase) (Pseudomonas sp. ADP; N304D)”, for which the Km turned out to be 25000 ± 4500 µM, the turnover number (kcat) stood at 189 ± 34 s⁻¹ and the catalytic efficiency (kcat/Km) is 7600 M⁻¹ s⁻¹.

Regarding “AtzC (N-isopropylammelide isopropylaminohydrolase) (Pseudomonas sp. ADP; Q160A)”, the Km came out at 1800 ± 300 µM, the catalytic constant (kcat) was found to be 23 ± 3.5 s⁻¹ and the specificity constant (kcat/Km) was found to be 13000 M⁻¹ s⁻¹.

As to “AtzC (N-isopropylammelide isopropylaminohydrolase) (Pseudomonas sp. ADP; Q160E)”, the Michaelis-Menten constant (Km) was 1300 ± 100 µM, the kcat is 10.4 ± 0.5 s⁻¹ and the specificity constant (kcat/Km) stood at 8100 M⁻¹ s⁻¹.

For another data set, the system named is Nc1nc(O)nc(O)n1. Description: purified protein. The note with it: 200 mM sodium phosphate pH 7.5, glycerol, 301 K, 28.0 °C.
“AtzC (N-isopropylammelide isopropylaminohydrolase) (Pseudomonas sp. ADP; D188N)”: the Michaelis constant (Km) was found to be 1900 ± 500 µM.
